± gives the standard deviation of the averaged measurements.
What was measured:
hTERT-HMEC = experiment: percentage of EdU-negative (G0-arrested) nuclei per well, 72 h; higher = more G0 arrest; details: reference: sequence is the full UniProt precursor, the tested protein was the secreted form or ectodomain
MCF7 = experiment: as above; details: reference: sequence is the full UniProt precursor, the tested protein was the secreted form or ectodomain
[1] = protein concentration 0.00875 µM
[2] = protein concentration 0.0875 µM
[3] = protein concentration 0.0225 µM
[4] = protein concentration 0.03125 µM
[5] = protein concentration 0.3125 µM
[6] = protein concentration 0.0357143 µM
[7] = protein concentration 0.357143 µM
[8] = protein concentration 0.0217075 µM
[9] = protein concentration 0.217075 µM
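Further: secreted proteins added to cultured cells, EdU pulse at the end, nuclei found by Hoechst imaging, EdU status from nuclear versus surrounding ring intensity ratio, PBS as neutral control.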

“MLRKGCCVELLLLLVAAELPLGGGCPRDCVCYPAPMTVSCQAHNFAAIPEGIPVDSERVFLQNNRIGLLQPGHFSPAMVTLWIYSNNITYIHPSTFEGFVHLEELDLGDNRQLRTLAPETFQGLVKLHALYLYKCGLSALPAGVFGGLHSLQYLYLQDNHIEYLQDDIFVDLVNLSHLFLHGNKLWSLGPGTFRGLVNLDRLLLHENQLQWVHHKAFHDLRRLTTLFLFNNSLSELQGECLAPLGALEFLRLNGNPWDCGCRARSLWEWLQRFRGSSSAVPCVSPGLRHGQDLKLLRAEDFRNCTGPASPHQIKSHTLTTTDRAARKEHHSPHGPTRSKGHPHGPRPGHRKPGKNCTNPRNRNQISKAGAGKQAPELPDYAPDYQHKFSFDIMPTARPKRKGKCARRTPIRAPSGVQQASSASSLGASLLAWTLGLAVTLR [Q86UN2]” was tested, and the “percentage of EdU-negative” value (hTERT-HMEC; [1]) was 5.4 ± 1%, the “percentage of EdU-negative” value (hTERT-HMEC; [2]) was 5.31 ± 0.34% and the “percentage of EdU-negative” value (MCF7; [1]) was 26.2 ± 0.18%. The “percentage of EdU-negative” value (MCF7; [2]) was 28.6 ± 1.4%.
“MLRLYVLVMGVSAFTLQPAAHTGAARSCRFRGRHYKREFRLEGEPVALRCPQVPYWLWASVSPRINLTWHKNDSARTVPGEEETRMWAQDGALWLLPALQEDSGTYVCTTRNASYCDKMSIELRVFENTDAFLPFISYPQILTLSTSGVLVCPDLSEFTRDKTDVKIQWYKDSLLLDKDNEKFLSVRGTTHLLVHDVALEDAGYYRCVLTFAHEGQQYNITRSIELRIKKKKEETIPVIISPLKTISASLGSRLTIPCKVFLGTGTPLTTMLWWTANDTHIESAYPGGRVTEGPRQEYSENNENYIEVPLIFDPVTREDLHMDFKCVVHNTLSFQTLRTTVKEASSTFSWGIVLAPLSLAFLVLGGIWMHRRCKHRTGKADGLTVLWPHHQDFQSYPK” was tested, and the “percentage of EdU-negative” value (hTERT-HMEC; [3]) was 5.09 ± 0.47%, the “percentage of EdU-negative” value (hTERT-HMEC; protein concentration 0.225 µM) was 9.76 ± 1.8% and the “percentage of EdU-negative” value (MCF7; [3]) was 25.1 ± 1.5%. For the same sequence, the “percentage of EdU-negative” value (MCF7; protein concentration 0.225 µM) was 30.8 ± 0.31%.
With “MLRMRVPALLVLLFCFRGRAGPSPHFLQQPEDLVVLLGEEARLPCALGAYWGLVQWTKSGLALGGQRDLPGWSRYWISGNAANGQHDLHIRPVELEDEASYECQATQAGLRSRPAQLHVLVPPEAPQVLGGPSVSLVAGVPANLTCRSRGDARPTPELLWFRDGVLLDGATFHQTLLKEGTPGSVESTLTLTPFSHDDGATFVCRARSQALPTGRDTAITLSLQYPPEVTLSASPHTVQEGEKVIFLCQATAQPPVTGYRWAKGGSPVLGARGPRLEVVADASFLTEPVSCEVSNAVGSANRSTALDVLFGPILQAKPEPVSVDVGEDASFSCAWRGNPLPRVTWTRRGGAQVLGSGATLRLPSVGPEDAGDYVCRAEAGLSGLRGGAAEARLTVNAPPVVTALHSAPAFLRGPARLQCLVFASPAPDAVVWSWDEGFLEAGSQGRFLVETFPAPESRGGLGPGLISVLHISGTQESDFSRSFNCSARNRLGEGGAQASLGRRDLLPTVRIVAGVAAATTTLLMVITGVALCCWRHSKASASFSEQKNLMRIPGSSDGSSSRGPEEEETGSREDRGPIVHTDHSDLVLEEEGTLETKDPTNGYYKVRGVSVSLSLGEAPGGGLFLPPPSPLGPPGTPTFYDFNPHLGMVPPCRLYRARAGYLTTPHPRAFTSYIKPTSFGPPDLAPGTPPFPYAAFPTPSHPRLQTHV [Q6UWL6]” the “percentage of EdU-negative” value (hTERT-HMEC; [3]) was 5.24 ± 0.16%, the “percentage of EdU-negative” value (hTERT-HMEC; protein concentration 0.225 µM) was 5.69 ± 0.77% and the “percentage of EdU-negative” value (MCF7; [3]) was 26.9 ± 3.4%. For the same sequence, the “percentage of EdU-negative” value (MCF7; protein concentration 0.225 µM) was 28.2 ± 1.2%.
For “MLRRRGSPGMGVHVGAALGALWFCLTGALEVQVPEDPVVALVGTDATLCCSFSPEPGFSLAQLNLIWQLTDTKQLVHSFAEGQDQGSAYANRTALFPDLLAQGNASLRLQRVRVADEGSFTCFVSIRDFGSAAVSLQVAAPYSKPSMTLEPNKDLRPGDTVTITCSSYQGYPEAEVFWQDGQGVPLTGNVTTSQMANEQGLFDVHSILRVVLGANGTYSCLVRNPVLQQDAHSSVTITPQRSPTGAVEVQVPEDPVVALVGTDATLRCSFSPEPGFSLAQLNLIWQLTDTKQLVHSFTEGRDQGSAYANRTALFPDLLAQGNASLRLQRVRVADEGSFTCFVSIRDFGSAAVSLQVAAPYSKPSMTLEPNKDLRPGDTVTITCSSYRGYPEAEVFWQDGQGVPLTGNVTTSQMANEQGLFDVHSVLRVVLGANGTYSCLVRNPVLQQDAHGSVTITGQPMTFPPEALWVTVGLSVCLIALLVALAFVCWRKIKQSCEEENAGAEDQDGEGEGSKTALQPLKHSDSKEDDGQEIA [Q5ZPR3]”, the “percentage of EdU-negative” value (hTERT-HMEC; protein concentration 0.019 µM) was 5.89 ± 0.34%, the “percentage of EdU-negative” value (hTERT-HMEC; protein concentration 0.19 µM) was 9.74 ± 0.48% and the “percentage of EdU-negative” value (MCF7; protein concentration 0.019 µM) was 24.4 ± 2.3%. For the same sequence, the “percentage of EdU-negative” value (MCF7; protein concentration 0.19 µM) was 27.33 ± 0.26%.
For “MLSCRLQCALAALSIVLALGCVTGAPSDPRLRQFLQKSLAAAAGKQELAKYFLAELLSEPNQTENDALEPEDLSQAAEQDEMRLELQRSANSNPAMAPRERKAGCKNFFWKTFTSC”, the “percentage of EdU-negative” value (hTERT-HMEC; [4]) was 5.72 ± 0.93%, the “percentage of EdU-negative” value (hTERT-HMEC; [5]) was 4.88 ± 0.35% and the “percentage of EdU-negative” value (MCF7; [4]) was 25.9 ± 3.1%. For the same sequence, the “percentage of EdU-negative” value (MCF7; [5]) was 27 ± 1.9%.
For “MLSGRLVLGLVSMAGRVCLCQGSAGSGAIGPVEAAIRTKLEEALSPEVLELRNESGGHAVPPGSETHFRVAVVSSRFEGLSPLQRHRLVHAALAEELGGPVHALAIQARTPAQWRENSQLDTSPPCLGGNKKTLGTP [Q9Y3E2]”, the “percentage of EdU-negative” value (hTERT-HMEC; [3]) was 5.42 ± 0.18%, the “percentage of EdU-negative” value (hTERT-HMEC; protein concentration 0.225 µM) was 5.59 ± 0.52% and the “percentage of EdU-negative” value (MCF7; [3]) was 28 ± 1.9%. For the same sequence, the “percentage of EdU-negative” value (MCF7; protein concentration 0.225 µM) was 27.3 ± 2.5%.
In the case of “MLSSVVFWGLIALIGTSRGSYPFSHSMKPHLHPRLYHGCYGDIMTMKTSGATCDANSVMNCGIRGSEMFAEMDLRAIKPYQTLIKEVGQRHCVDPAVIAAIISRESHGGSVLQDGWDHRGLKFGLMQLDKQTYHPVGAWDSKEHLSQATGILTERIKAIQKKFPTWSVAQHLKGGLSAFKSGIEAIATPSDIDNDFVNDIIARAKFYKRQSF [Q86SG7]”, the “percentage of EdU-negative” value (hTERT-HMEC; [3]) is reported as 4.33 ± 0.76%, the “percentage of EdU-negative” value (hTERT-HMEC; protein concentration 0.225 µM) is reported as 5.09 ± 0.33% and the “percentage of EdU-negative” value (MCF7; [3]) is reported as 27.3 ± 1.4%. The “percentage of EdU-negative” value (MCF7; protein concentration 0.225 µM) was 25.6 ± 2.5%.
In the case of “MLTRLVLSAHLSSTTSPPWTHAAISWELDNVLMPSPRIWPQVTPTGRSASVRSEGNTSSLWNFSAGQDVHAIVTRTCESVLSSAVYTHGCGCVRSATNITCQSSGQQRQAARQEEENSICKAHDSREGRLGYPLSAHQPGSGGPN [Q8TAV5]”, the “percentage of EdU-negative” value (hTERT-HMEC; [3]) is reported as 5.652 ± 0.04%, the “percentage of EdU-negative” value (hTERT-HMEC; protein concentration 0.225 µM) is reported as 12.7 ± 0.25% and the “percentage of EdU-negative” value (MCF7; [3]) is reported as 24.95 ± 0.064%. The “percentage of EdU-negative” value (MCF7; protein concentration 0.225 µM) was 26 ± 2.6%.
“MLTTLLPILLLSGWAFCSQDASDGLQRLHMLQISYFRDPYHVWYQGNASLGGHLTHVLEGPDTNTTIIQLQPLQEPESWARTQSGLQSYLLQFHGLVRLVHQERTLAFPLTIRCFLGCELPPEGSRAHVFFEVAVNGSSFVSFRPERALWQADTQVTSGVVTFTLQQLNAYNRTRYELREFLEDTCVQYVQKHISAENTKGSQTSRSYTSLVLGVLVGSFIIAGVAVGIFLCTGGRRC [Q9UNN8]” was tested, and the “percentage of EdU-negative” value (hTERT-HMEC; [6]) was 4.92 ± 0.17%, the “percentage of EdU-negative” value (hTERT-HMEC; [7]) was 6.22 ± 0.072% and the “percentage of EdU-negative” value (MCF7; [6]) was 24.2 ± 1.7%. For the same sequence, the “percentage of EdU-negative” value (MCF7; [7]) was 25.3 ± 1.2%.
For “MLVDGPSERPALCFLLLAVAMSFFGSALSIDETRAHLLLKEKMMRLGGRLVLNTKEELANERLMTLKIAEMKEAMRTLIFPPSMHFFQAKHLIERSQVFNILRMMPKGAALHLHDIGIVTMDWLVRNVTYRPHCHICFTPRGIMQFRFAHPTPRPSEKCSKWILLEDYRKRVQNVTEFDDSLLRNFTLVTQHPEVIYTNQNVVWSKFETIFFTISGLIHYAPVFRDYVFRSMQEFYEDNVLYMEIRARLLPVYELSGEHHDEEWSVKTYQEVAQKFVETHPEFIGIKIIYSDHRSKDVAVIAESIRMAMGLRIKFPTVVAGFDLVGHEDTGHSLHDYKEALMIPAKDGVKLPYFFHAGETDWQGTSIDRNILDALMLNTTRIGHGFALSKHPAVRTYSWKKDIPIEVCPISNQVLKLVSDLRNHPVATLMATGHPMVISSDDPAMFGAKGLSYDFYEVFMGIGGMKADLRTLKQLAMNSIKYSTLLESEKNTFMEIWKKRWDKFIADVATK [Q9NZK5]”, the “percentage of EdU-negative” value (hTERT-HMEC; [8]) was 4.31 ± 0.15%, the “percentage of EdU-negative” value (hTERT-HMEC; [9]) was 7.86 ± 0.091% and the “percentage of EdU-negative” value (MCF7; [8]) was 24.5 ± 1.2%. For the same sequence, the “percentage of EdU-negative” value (MCF7; [9]) was 28.4 ± 1.5%.

— the supplement of paper PMC11316812
